# Assay: soluble on expression in E. coli; label from the status in PepcDB or PDB records
row,Sequence,soluble on expression in E. coli
1,MELTAFRHQVGGHFGILLCNGHVAKPSNLREMAFYKVMNSELKHFSPAFCKEVDVRATVNPSTGQIVVETLEKLDCHKKKSSSKHERSSTGFRQTTDGRVTVDTEKQWNPWAAGCQCKVVERMLKELEPTPFLLLENVVAHYTRPCVLDLKIGTRQHGDDASESKRHRQLMKCRHSTSATLGVRVVGMQLYEAETKSYSYVEKQEGRRIDAAGFRGYVKRFIKCCGRSRAARIRQKLSKLRSLLAEFEGYRFFSASILIAFDAEAADSSSDDAVKVCIIDFAHSTFSGFFEDLAYSGADEGCLLGLDSIVEAMEPIVSKDPVTPSSSFEKKK,not soluble
2,MHHHHHHSSGVDLGTENLYFQSMKQYEHVTRDLNPEDFWEIIGELGDGAFGKVYKAQNKETSVLAAAKVIDTKSEEELEDYMVEIDILASCDHPNIVKLLDAFYYENNLWILIEFCAGGAVDAVMLELERPLTESQIQVVCKQTLDALNYLHDNKIIHRDLKAGNILFTLDGDIKLADFGVSAKNTRTIQRRDSFIGTPYWMAPEVVMCETSKDRPYDYKADVWSLGITLIEMAEIEPPHHELNPMRVLLKIAKSEPPTLAQPSRWSSNFKDFLKKCLEKNVDARWTTSQLLQHPFVTVDSNKPIRELIAEAKAEVTEEVEDGKE,soluble
3,MKIHTTEALMKAEISRRSLMKTSALGSLALASSAFTLPFSQMVRAAEAPVEEKAVWSSCTVNCGSRCLLRLHVKDDTVYWVESDTTGDDVYGNHQVRACLRGRSIRRRMNHPDRLKYPMKRVGKRGEGKFERISWDEALDTISDNLRRILKDYGNEAVHVLYGTGVDGGNITNSNVPYRLMNSCGGFLSRYGSYSTAQISAAMSYMFGANDGNSPDDIANTKLVVMFGNNPAETRMSGGGVTYYVEQARERSNARMIVIDPRYNDTAAGREDEWLPIRPGTDGALACAIAWVLITENMVDQPFLDKYCVGYDEKTLPANAPRNAHYKAYILGEGPDGIAKTPEWAAKITSIPAEKIIQLAREIGSAKPAYICQGWGPQRHSNGEQTSRAIAMLSVLTGNVGINGGNSGVREGSWDLGVEWFPMLENPVKTQISVFTWTDAIDHGTEMTATRDGVRGKEKLDVPIKFLWCYASNTLINQHGDINHTHEVLQDDSKCEMIVGIDHFMTASAKYCDILLPDLMPTEQEDLISHESAGNMGYVILAQPATSAKFERKPIYWMLSEVAKRLGPDVYQTFTEGRSQHEWIKYLHAKTKERNPEMPDYEEMKTTGIFKKKCPEEHYVAFRAFREDPQANPLKTPSGKIEIYSERLAKIADTWELKKDEIIHPLPAYTPGFDGWDDPLRKTYPLQLTGFHYKARTHSSYGNIDVLQQACPQEVWINPIDAQARGIRHGDTVRVFNNNGEMLIAAKVTPRILPGVTAIGQGAWLKADMFGDRVDHGGSINILTSHRPSPLAKGNPSHSNLVQIEKV,not soluble
4,MEEKVYLDKLAKRDIKPTAIRLLILKSMMEAGRAVSQLDLETLLDTVDKSTISRTITLFLSHHLIHSIDDGSGSWKYAVCDDSCNCVLKDLHSHFYCEKCHRTFCLEKIHIPVIDLPKGFTLHSVNYVVKGVCAECSKV,not soluble
5,MKEIDIIQQIKLGEVSKVQFKERLLDNYDIGCELVAFSNARGGTLVVGAVDKTGNINPLSYLEVQETTNTLSNIASENVVPAILVDVETISVDGGSLVVAHIKEGLNKPYHDNRGIVWVKNGADKRKVFDNAELAEMMTDCGSFSPDEAGVRDATIKDLDEGTIKTFLSNKFDKVLARKGLVGDAFREASLDTVCSAIASGHNGEKLLRNLRFIRPDGKITVAAMLLFGKYTQRWLPMMTAKCICFVGNNLGGTQFRDKVNDADIEGNLLHQFETIMDFFTRNLRHIQVGNEFNSQGVLEIPYTSLVEFTVNALVHRSLNATAPIRIFIFDDRVEIHSPGILPNGLTVDDIVIGTSMPRNMFLFTNAIHLLPYTGAGSGMLRALSEDVNVSFTNNDRTNEFVITINRQISNQPNADSDTDLDTDSDTFNADSDTKLRYSDTDLDTDSDTFNADSDTIRPKITNKQRDIVNFCSVPRSSKEILERVGVTYHSKNIQTYIMSLIEAGYLEMTNPEHPNASNQKYRRSKKLEHHHHHH,soluble
6,FFTPPHIVQLCVRLVDDFADGMTFHDPTVGSGGMLTEAAKYYREAQGGDPSKLTFTGQEINPDIAAIARMNLSLHTLNGEIERGDSLASPGFTDGDDLERFDRVLANFPFSADWAKDDLQDDQYGRFDWHTKLPRADRGDYAFIMHIAEQLKEPDCGDESGGKAAIVIPHGVLFRKHEQRYRQPMLENDLVEAIVGLPENLFQNNSIPSAILVLNTDKPADREGEVQFIHAADEAFYEELSNQNELTDDGLDHIVENFDDWTTE,not soluble
7,MPIVNVKWQKEKYVVEVDTSAPPMVFKAQLFALTQVVPERQKVVIMGRTLGDDDWEGITIKENMTIMMMGSVGEIPKPPTVLEKKQANRDKQAEEISALYPCGLANLGNTCYFNSCVQMLKEVNELVLKPAEEMRIREHNDRLCHNLATLFNSLRDKDRALRSKGEPIKPFAAILTLSDSFPQFEKFKQQDANECLVSIMSNVTRIYGLSGWNIESLFRIQTETTMKCLESDEVSEKKVERNNQLTCYVNQDVRFLQTGIKAGFEEEMTRNSEELNRDAKWQKNTQISRLPKYLTVNINRFFYKESTKTNAKILKSVQFPMQLDTYDLCSQELKDKLVARRADIKLEEDAKLERELRKKVLDKEQGDKIFDDGVALPTAFEDDAGSNNSGFYDLKGIITHKGRSSQDGHYVAWMRSSEDGKWRLFDDEHVTVVDEEAILKTSGGGDWHSAYVLLYEARVIKQFPELPPAPVPTEVAADTAEPMEVSEKQ,not soluble
8,MKDKQLRLRIYRSAFSSMKNAIVEKAREFGVPVILVDPSYTSSICPVHGSKIIYQPDGGSAPRVGVCGKGGERWHRDVVALYNLRKRAGDVLEHHHHHH,not soluble
9,MGHHHHHHSHMANPKLLGLELSEAEAIGADSARFEELLLQASKELQQAQTTRPESTQIQPQPGFCIKTNSSEGKVFINICHSPSIPPPADVTEEELLQMLEEDQAGFRIPMSLGEPHAELDAKGQGCTAYDVAVNSDFYRRMQNSDFLRELVITIAREGLEDKYNLQLNPEWRMMKNRPFMGSISQQNIRSEQRPRIQELGDLYTPAPGRAESGPEKPHLNLWLEAPDLLLAEIDLPKLDGALGLSLEIGENRLVMGGPQQLYHLDAYIPLQINSHESKAAFHRKRKQLMVAMPLLLVPS,not soluble
10,TLTTPPLELSDAIEYILMPLKAVHFPVYEVALMLSIALRFVPTLMDETEKIMNAQRARGVDFGEGNIFQQMRAVVPLLIPLFVSSFNRAEDLATAMEARGYQGGEGRSKYRILKWHQRDTWATGCFAILTVALIFLRA,not soluble
11,ARRLYVGNIPFGITEEAMMDFFNAQMRLGGLTQAPGNPVLAVQINQDKNFAFLEFRSVDETTQAMAFDGIIFQGQSLKIRRPHDYQPLPG,soluble
12,HFVKSVEDKAISVTLAQGNIEQNLKWDPNYFYSTLAIYQKLITENLGKTDLIILPESALPTLENAITPFFEGLERAAKETKTEIMVGTVFQDTKSGKLLNSIMTAGNPDFPYQPNTQNRYNKHHLVPFGEYVPLESILRPLNSVFNLPMSAFQSGEAVQPSLIAKKRAFSPAICYEIIFGEQVRQNLKQDTDYLLTLSNDAWFGDSIGPWQHLQMARMRALELGKPLIRATNTGISVFVDAQGKVLAQAPQFIETTLTYKIAPAEGKTPYSVLGNMPLYALSLLFLLLHS,not soluble
13,KLRQWLIDQIDSGKYPGLVWENEEKSIFRIPWKHAGKQDYNREEDAALFKAWALFKGKFREGIDKPDPPTWKTRLRCALNKSNDFEELVERSQLDISDPYKVYRIVPE,soluble
14,MGSDKIHHHHHHMKGFITNIQRMSIHDGPGIRSTIFLKGCNLRCKWCHNPETWSMKPQLQYIEDKCIHCFSCITVCEYEVLFIDSNRLSIHRERCTDCGKCTERCTSGALSWIGKEVDSSDIIHEILQDLIYYQKSGGGITLSGGEPLQQKDFALDILQKCREHRIHTAVETNLLTDVNTLEAFLPWVDLWMCDFKMADDTLHRKWTGHSNVPIIKNLEFLAKQAVPLTIRTPVIPNVNDSEEAIESICRFIRQLPNQPAYELLGFHSLGFVKFENLGMKNPLSNSAFLKKGQLQKLKEILIRYNLNNNKK,not soluble
15,MGSDKIHHHHHHMAYTVLLVTSVNTYKEQLNHPIMSDVGKLLPTKIKRVESATDEHSLIKLVQDANVSGEKISIAGMQHSQGGQTYYPHGTMLDMKGYNKILEFDPEKKRITVQSGATWNDIQKKVNPYGLAVQVMQSQNIFTVGGSLSVNVHGRDIRHEALIDTVESFRLLMADGTVRNVSREENADLFPYVIGGYGLFGVILDVTLKLTNDELYETHTKMLDYKEYTSYFKEKVKKDENVRMHLARISVAPNSFFREMYVTDYTLAKNQNMREEYSKLKEETIIAAPKFLLGLSRYSDWGKDTFWDIQRSYFERTDGKYETRNNVMRSDSAFMEYENPNRTEVLQEYFVPIDFFTEYIDDLRNVLNEEEFNLLNITVRYVEKNENAVLSYAKDDMFALVLLINQGRSEHEIKKTENVIQKMIDVTLKHNGSYYLPYYSYPSKEQLRRAYPRIEEFLQKKKEADPKERFVNLFYREYTK,not soluble
16,MVAKQISKADIHLLRVFCIVVDSQGFSNAQVALNVATSTISRQISELETRLGMRLCDRGRSGFRVTEKGETVYQAAQKLFGALGEFQETVDGSRGRLFGHLALGIIENWASNTSAPIVQALSRFTDLAPDVTIELHSLAPDDIEFAVLDGRVPIGIGVFHSPKPGILYTKVCEERVCLYCGSGHPLFHMTNLEDEERVLRQAQFAKRAYLNEDVVAPKTRNLPSNATAHQMEAIALLILTDKYVGYLPSYFAEEWVAKGRMKIVAGGSFDRPVSVQTATRRGMKLNSVGRTFLDILTAEAVKQGG,not soluble
17,MIPLLAFAAWSGTGKTTLLKKLIPALCARGIRPGLIKHTHHDMDVDKPGKDSYELRKAGAAQTIVASQQRWALMTETPDEEELDLQFLASRMDTSKLDLILVEGFKHEEIAKIVLFRDGAGHRPEELVIDRHVIAVASDVPLNLDVALLDINDVEGLADFVVEWMQKQNG,soluble
18,MGSDKIHHHHHHMRRQANSPSPDPVSTTRPVAWRPTLAKQKGETKHSALTERIIADIDAGVLKPMDRMPTHRDLARELGLSVQTVSLSYKEAERLGYLSGEIGRGTFVKTRVTERAGRMMLDHSPTEVLDLSIIRGVYLDDHENASRTILREMADSDNSGFMRPCRPVAGLDSHRETARTWLGMMGVTAGAERILVTNGAAHGIFLALSCIIRSNDVVLCENLTDHGIIGLSNILGFSLKGLPTDEEGILPDALEAACAAGGVRALVLIPTLNNPTGHVSGAARRQAIATIAERYGIFIIEDEVYRPMIEDDLPSITEMLPDLGFFVTSFTKTVLTGLRVGYLVVPPAYSIRAASILRVSSWSGTYLTAEIATRWVENGTARRLLDVQRTEARARQKIAVDILGDHIGSTHPLSFCAWLTVPPRWTEDGLVRALTNQNVAVTPSEPFIAGPGHGGGIRICLGGRLNHASLARALTTVRQTFEQLPPVYDIGSIG,not soluble
19,QHPAFMTEMPTDGKYQDTIEALQSMKYDKEDDEDKQMNAEHHKEEGNKHFKFKKYRWATDCYSNGIKENSPDRKLNAVLYFNRAAAQKHLGNLRSAIKDCSMGRKFDPTHLKGVIRGAECLLELEYAKDALNWIESSKKIFAFTKETSDTPDLTDDEKKFIDQLETLRVKSVELSLKEERDKRKSRAEERKETESKKQLLDALKERNLNLCPRVPFDRPELMDMARLTVSLPLMHSHECVKFDDDLNLVWPILLQYPEAGQTDVLTETNELTTVGELLKEVLNSPAQWDPEHKFNFENVRFFVSDEYDEYLMEVYEWNDFKSVLSMPGYQIKQGLPVIMIMTKEKAASSLEALAEDENRYVAK,not soluble
20,DRKMNRKMISIVENDGNGFREVFRYDYERKNFVPDNLKEITSIQLERSRELLGWSRDKLYREIENRLLLIRGLAEKGVYDYDTLARELVKYYTNGD,not soluble

# Source: the DeepSol protein solubility set
